Test results: patent publication US9777056B2, “Immunotherapy for clearing pathological tau conformers” (New York University, priority 2006, dated 2017)

Assay: Thioflavin T (ThT) in vitro fibrillogenesis assay
Format: physicochemical
Details: 0.1 M Tris pH 7.4, incubated for different times
Method: ThT binds specifically to β-sheet structure and this binding produces a shift in its emission spectrum and a fluorescent enhancement proportional to the amount of amyloid formed. Following the incubation period, 50 mM glycine, pH 9.2, and 2 μM ThT was added to a final volume of 200 μl containing 3 μg of the immunogen or the P301L tau peptide (with or without equimolar concentration of antibodies purified from the immunized mice). Fluorescence was measured at excitation 435 nm and emission 485 nm on a SpectraMax M2 multi-detection plate reader (Molecular Devices, Sunnyvale, Calif.).

Question: Which “fibril formation (fibrillogenicity), Thioflavin T fluorescence” value does the source give for “Aβ1-42: amyloid-β control peptide used for comparison in ThT and MTT assays” here?
Answer: The value was “very fibrillogenic”.
